Laboratory results as given in publication PMC11870197.

T1: 6xHis-PhoP~P (Lacticaseibacillus paracasei BL23, UniProt Q03AN9 1-235)
T1 sequence: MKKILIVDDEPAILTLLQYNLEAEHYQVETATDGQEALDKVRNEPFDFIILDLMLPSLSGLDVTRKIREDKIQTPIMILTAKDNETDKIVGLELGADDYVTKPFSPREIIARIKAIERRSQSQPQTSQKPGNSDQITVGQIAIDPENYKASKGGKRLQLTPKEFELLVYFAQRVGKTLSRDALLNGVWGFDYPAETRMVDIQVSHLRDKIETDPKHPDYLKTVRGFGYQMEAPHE

T2: 6xHis-PhoP (Lacticaseibacillus paracasei BL23, UniProt Q03AN9 1-235)
T2 sequence: T1 sequence

B1: glnA promoter fragment (dsDNA)
DNA 1: TGCCAAATTAGTGACGCTATTTGCAAATTCCCCCGCGACAATTTTTAGACAATCTTTCCTTTTATTTAAAATCATGTAACATTAGGGCCGAACGATACATATGTAACGGTGTTTTTTAACC
DNA 2: GGTTAAAAAACACCGTTACATATGTATCGTTCGGCCCTAATGTTACATGATTTTAAATAAAAGGAAAGATTGTCTAAAAATTGTCGCGGGGGAATTTGCAAATAGCGTCACTAATTTGGCA
B2: poxL promoter fragment (dsDNA)
DNA 1: TTGATCCATGATCCTGATCATCATTAAGTTAATTTGTGAAAAAGGTTTACCAAGCATGTTATGGCGTGGTGATGCTGTATTAGTTCACTTGTTTGACTGTTATGGTGTCGTCG
DNA 2: CGACGACACCATAACAGTCAAACAAGTGAACTAATACAGCATCACCACGCCATAACATGCTTGGTAAACCTTTTTCACAAATTAACTTAATGATGATCAGGATCATGGATCAA
B3: ackA promoter fragment (dsDNA)
DNA 1: GATTCGCCGAAAACCAAGAAAAAGTCATGATGCTGTGCGATTACGTGTGCGGCAATCCGACTACCCGTTTAGAGGAGGAAAAAAACAATGGCAAAAATTCTCGCAGTCAACGCAGGCAGTTC
DNA 2: GAACTGCCTGCGTTGACTGCGAGAATTTTTGCCATTGTTTTTTTCCTCCTCTAAACGGGTAGTCGGATTGCCGCACACGTAATCGCACAGCATCATGACTTTTTCTTGGTTTTCGGCGAATC

Legend:
Assay in all cases: EMSA
6xHis-PhoP~P [1] = target: T1, 6xHis-PhoP~P
6xHis-PhoP = target: T2, 6xHis-PhoP
6xHis-PhoP~P [2] = target: T1, 6xHis-PhoP~P; remark: listed apart in the source

Binder	binding signal (6xHis-PhoP~P [1])	binding result (6xHis-PhoP)	binding result (6xHis-PhoP~P [2])
B1	~10 fold more PhoP required than for pstS or phnD		
B2		no binding	no binding
B3		no binding	no binding
